This note sets out measurements from US20070071746A1 (AstraZeneca / MedImmune, published 2007).

B3: human galectin-4 (other, UniProt P56470 1-323, looked up)
chain: MAYVPAPGYQPTYNPTLPYYQPIPGGLNVGMSVYIQGVASEHMKRFFVNFVVGQDPGSDVAFHFNPRFDGWDKVVFNTLQGGKWGSEERKRSMPFKKGAAFELVFIVLAEHYKVVVNGNPFYEYGHRLPLQMVTHLQVDGDLQLQSINFIGGQPLRPQGPPMMPPYPGPGHCHQQLNSLPTMEGPPTFNPPVPYFGRLQGGLTARRTIIIKGYVPPTGKSFAINFKVGSSGDIALHINPRMGNGTVVRNSLLNGSWGSEEKKITHNPFGPGQFFDLSIRCGLDRFKVYANGQHLFDFAHRLSAFQRVDTLEIQGDVTLSYVQI
notes: also called gal-4
B4: human AMCase C-terminally truncated, lacking the chitin binding domain (enzyme)
chain: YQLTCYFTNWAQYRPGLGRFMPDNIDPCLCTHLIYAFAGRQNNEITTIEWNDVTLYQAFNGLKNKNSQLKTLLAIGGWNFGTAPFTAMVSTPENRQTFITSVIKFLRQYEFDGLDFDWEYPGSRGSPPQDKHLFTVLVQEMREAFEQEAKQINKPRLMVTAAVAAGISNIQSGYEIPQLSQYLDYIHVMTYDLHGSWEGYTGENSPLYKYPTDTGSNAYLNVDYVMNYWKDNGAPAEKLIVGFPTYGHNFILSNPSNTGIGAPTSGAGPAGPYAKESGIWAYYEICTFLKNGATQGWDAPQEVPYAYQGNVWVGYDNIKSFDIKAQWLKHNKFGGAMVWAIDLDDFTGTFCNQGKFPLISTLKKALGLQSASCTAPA
notes: Biotin labeled in the galectin ELISA; also called hAMCase TR
B5: human acidic mammalian chitinase (AMCase), full length (enzyme)
chain: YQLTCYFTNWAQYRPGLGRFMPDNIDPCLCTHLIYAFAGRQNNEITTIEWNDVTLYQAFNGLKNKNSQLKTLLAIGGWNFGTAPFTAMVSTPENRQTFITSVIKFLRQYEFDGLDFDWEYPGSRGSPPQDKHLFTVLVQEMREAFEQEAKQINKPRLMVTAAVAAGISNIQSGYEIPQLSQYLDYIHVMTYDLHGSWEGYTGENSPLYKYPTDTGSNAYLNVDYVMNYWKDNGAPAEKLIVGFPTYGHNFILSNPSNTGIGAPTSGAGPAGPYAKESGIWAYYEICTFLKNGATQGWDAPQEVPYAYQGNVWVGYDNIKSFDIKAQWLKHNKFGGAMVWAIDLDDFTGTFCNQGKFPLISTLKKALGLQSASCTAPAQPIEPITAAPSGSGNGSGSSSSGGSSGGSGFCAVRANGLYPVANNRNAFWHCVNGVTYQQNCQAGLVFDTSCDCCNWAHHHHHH
notes: Recombinant from HEK293; non-tagged versions also made; Biotin labeled in the galectin ELISA; also called hAMCase; human AMCase

In assay [1] the target is T1, Ym1 (mouse, UniProt O35744 22-398).
T1 construct: Recombinant from HEK293; non-tagged versions also made; also called chitinase 3-like 3; ECF-L
T1 sequence (O35744 other isoform, or with tags, fused parts or gaps limits assumed): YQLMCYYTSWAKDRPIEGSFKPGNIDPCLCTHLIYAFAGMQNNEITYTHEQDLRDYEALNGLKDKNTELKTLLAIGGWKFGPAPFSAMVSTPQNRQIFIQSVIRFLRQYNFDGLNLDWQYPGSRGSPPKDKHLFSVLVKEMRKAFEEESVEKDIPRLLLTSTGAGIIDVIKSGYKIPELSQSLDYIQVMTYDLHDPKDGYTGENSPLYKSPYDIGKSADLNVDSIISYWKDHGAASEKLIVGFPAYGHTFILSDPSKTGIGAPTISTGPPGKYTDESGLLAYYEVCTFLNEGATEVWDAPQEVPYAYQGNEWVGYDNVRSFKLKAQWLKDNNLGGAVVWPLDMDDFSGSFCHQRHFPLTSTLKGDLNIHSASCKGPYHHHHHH
Put plainly: ELISA. (ELISA stands for enzyme-linked immunosorbent assay.)

Assay [2] has as its target B5. The assay is described as follows: ELISA.
Assay [3] concerns the target T2, mouse AMCase truncated form lacking the C-terminal chitin binding domain (mouse, UniProt Q91XA9 22-398, limits assumed).
T2 construct: also called mAMCase TR
The assay is described as follows: ELISA.

Assay [4] has as its target T3, mouse chitotriosidase (mouse, UniProt Q9D7Q1 22-464).
T3 construct: Recombinant from HEK293; non-tagged versions also made; also called mChT; mouse ChT
The assay is described as follows: ELISA.

In assay [5] the target is T4, mouse YKL-40/BRP-39 (mouse, UniProt Q61362 30-389).
T4 construct: Recombinant from HEK293; non-tagged versions also made; also called mYKL40/BRP39; mYKL-40
T4 sequence (Q61362 other isoform, or with tags, fused parts or gaps limits assumed): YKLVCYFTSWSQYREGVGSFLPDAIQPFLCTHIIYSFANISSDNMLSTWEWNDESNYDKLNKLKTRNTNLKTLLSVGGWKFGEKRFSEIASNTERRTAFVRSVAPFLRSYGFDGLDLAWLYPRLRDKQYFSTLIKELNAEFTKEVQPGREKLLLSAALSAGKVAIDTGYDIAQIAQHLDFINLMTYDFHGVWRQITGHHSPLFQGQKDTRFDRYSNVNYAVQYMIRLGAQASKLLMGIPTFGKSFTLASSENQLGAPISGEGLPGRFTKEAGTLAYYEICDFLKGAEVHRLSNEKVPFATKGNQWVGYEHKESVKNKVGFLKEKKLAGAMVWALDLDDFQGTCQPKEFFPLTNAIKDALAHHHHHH
The assay is described as follows: ELISA.

The target in assay [6] is T5, human YKL-39 (human, UniProt Q15782 27-390).
T5 construct: Recombinant from HEK293; non-tagged versions also made; also called hYKL-39; chondrocyte protein 39
T5 sequence: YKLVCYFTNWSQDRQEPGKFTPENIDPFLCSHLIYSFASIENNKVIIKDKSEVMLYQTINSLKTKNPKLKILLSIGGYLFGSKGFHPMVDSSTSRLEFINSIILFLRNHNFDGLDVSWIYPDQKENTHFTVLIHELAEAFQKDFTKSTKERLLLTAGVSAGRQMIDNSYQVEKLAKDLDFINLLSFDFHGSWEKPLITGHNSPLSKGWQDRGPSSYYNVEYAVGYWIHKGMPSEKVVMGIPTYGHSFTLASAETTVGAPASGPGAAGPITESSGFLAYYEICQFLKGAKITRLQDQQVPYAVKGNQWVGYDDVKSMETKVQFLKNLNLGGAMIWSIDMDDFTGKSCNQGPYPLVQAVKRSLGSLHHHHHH
Put plainly: ELISA.

Assay [7] has as its target T6, human YKL-40 (human, UniProt P36222 22-383).
T6 construct: Recombinant from HEK293; non-tagged versions also made; also called hYKL-40; chitinase 3-like 1
Put plainly: ELISA.

The target of assay [8] is B4. Put plainly: ELISA.
Assay [9] deals with T7, Ym2 (mouse, UniProt Q91Z98 22-402).
T7 construct: Recombinant from HEK293; non-tagged versions also made; also called chitinase 3-like 4
T7 sequence (Q91Z98 other isoform, or with tags, fused parts or gaps limits assumed): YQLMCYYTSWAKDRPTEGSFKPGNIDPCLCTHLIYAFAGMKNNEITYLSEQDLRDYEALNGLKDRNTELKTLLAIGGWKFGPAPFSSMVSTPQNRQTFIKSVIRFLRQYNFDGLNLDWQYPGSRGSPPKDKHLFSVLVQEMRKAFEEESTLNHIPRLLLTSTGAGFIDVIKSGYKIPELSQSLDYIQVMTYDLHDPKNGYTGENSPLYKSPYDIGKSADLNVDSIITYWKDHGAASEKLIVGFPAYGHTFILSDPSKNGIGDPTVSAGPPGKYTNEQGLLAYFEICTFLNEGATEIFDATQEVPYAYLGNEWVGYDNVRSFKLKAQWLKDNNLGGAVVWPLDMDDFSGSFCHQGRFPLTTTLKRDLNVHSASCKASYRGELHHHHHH
Put plainly: ELISA.

The target in assay [10] is T8, human chitotriosidase (human, UniProt Q13231 22-466).
T8 construct: Recombinant from HEK293; non-tagged versions also made; also called hChT; ChT
T8 sequence (Q13231 other isoform, or with tags, fused parts or gaps limits assumed): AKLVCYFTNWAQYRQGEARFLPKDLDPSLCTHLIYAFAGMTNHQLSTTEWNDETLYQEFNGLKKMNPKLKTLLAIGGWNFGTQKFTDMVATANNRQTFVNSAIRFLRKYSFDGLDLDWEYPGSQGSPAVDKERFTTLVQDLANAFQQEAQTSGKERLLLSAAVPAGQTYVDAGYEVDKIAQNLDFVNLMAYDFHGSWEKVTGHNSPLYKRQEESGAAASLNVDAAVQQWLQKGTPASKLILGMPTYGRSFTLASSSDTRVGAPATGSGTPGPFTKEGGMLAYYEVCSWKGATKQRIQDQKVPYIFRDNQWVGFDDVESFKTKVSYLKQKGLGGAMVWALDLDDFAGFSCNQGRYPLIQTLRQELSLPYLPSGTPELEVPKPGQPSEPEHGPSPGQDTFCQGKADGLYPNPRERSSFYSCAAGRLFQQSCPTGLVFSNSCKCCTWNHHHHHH
The assay is described as follows: ELISA.

In assay [11] the target is B4. The assay is described as follows: ELISA: galectin immobilised on the plate, serial dilutions of biotin-labelled C-terminally truncated human AMCase, A450. As for the experimental part: (§1) C/CLP-Galectin Interaction ELISA: Galectin is immobilized on a microtiter plate in DPBS over night at 2-8° C. The plates are then washed with DPBS, 0.1% Tween 20 and blocked for 1 hour at room temperature. Serial dilutions of biotin labeled AMCase are added to each well and incubated for ˜1 hour at room temperature followed by HRP labeled streptavidin. Horseradish peroxydase activity is detected with TMB substrate (KPL, MD) and the reaction is quenched with 1% H2SO4. The absorbance is read at 450 nm.

The target of assay [12] is B5. The assay is described as follows: ELISA: galectin immobilised on the plate, serial dilutions of biotin-labelled full length human AMCase, A450. As for the experimental part:
as §1

The target of assay [13] is B5. The assay is described as follows: ELISA: galectin immobilised on the plate, serial dilutions of biotin-labelled AMCase, streptavidin-HRP, TMB, A450. As for the experimental part: as §1
The target of assay [14] is B3. The description is as above. As for the experimental part: as §1
In assay [15] the target is T9, human galectin-3 (human, UniProt P17931 2-250).
T9 construct: also called gal-3; LGALS3
T9 sequence (P17931 2-250 limits assumed): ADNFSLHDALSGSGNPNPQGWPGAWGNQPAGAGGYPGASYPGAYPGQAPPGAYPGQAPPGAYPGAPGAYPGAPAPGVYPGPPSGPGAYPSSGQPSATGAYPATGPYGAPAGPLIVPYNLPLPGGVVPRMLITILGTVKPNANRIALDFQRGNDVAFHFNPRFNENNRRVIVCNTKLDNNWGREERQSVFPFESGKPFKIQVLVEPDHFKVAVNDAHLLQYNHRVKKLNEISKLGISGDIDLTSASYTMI
The assay is described as above. As for the experimental part:
as §1

For assay [16], the target named is T10, mouse AMCase E140A (mouse, UniProt Q91XA9 22-473).
T10 construct: Full length point mutant without chitinase activity; also called mAMCase E140A
T10 sequence (Q91XA9 22-473 E140A limits assumed): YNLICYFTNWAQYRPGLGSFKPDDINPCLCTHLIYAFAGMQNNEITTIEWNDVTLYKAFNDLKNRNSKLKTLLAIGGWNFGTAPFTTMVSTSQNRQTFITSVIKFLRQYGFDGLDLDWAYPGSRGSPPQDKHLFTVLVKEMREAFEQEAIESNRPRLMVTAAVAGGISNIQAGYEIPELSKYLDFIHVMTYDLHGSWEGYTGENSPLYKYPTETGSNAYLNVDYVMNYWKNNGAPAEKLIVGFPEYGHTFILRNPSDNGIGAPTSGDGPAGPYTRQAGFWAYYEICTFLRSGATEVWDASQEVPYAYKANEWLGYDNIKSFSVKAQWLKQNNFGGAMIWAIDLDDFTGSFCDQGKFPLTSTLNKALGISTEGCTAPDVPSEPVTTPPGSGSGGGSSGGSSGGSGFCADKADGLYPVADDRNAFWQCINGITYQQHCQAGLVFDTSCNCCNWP
The assay is described as follows: ELISA; +++ = 2.50 to 3.99 OD at 62.5 ng/ml.

In assay [17] the target is T11, mouse AMCase D136A (mouse, UniProt Q91XA9 22-473).
T11 construct: Full length point mutant without chitinase activity; also called mAMCase D136A
T11 sequence (Q91XA9 22-473 D136A limits assumed): as the sequence (Q91XA9 22-473 E140A limits assumed) above, with D115A, A119E counted along it
The assay is described as follows: ELISA; +++ = 2.50 to 3.99 OD at 62.5 ng/ml.

The target in assay [18] is T12, mouse acidic mammalian chitinase (AMCase), full length (mouse, UniProt Q91XA9 22-473).
T12 construct: Recombinant, secreted from HEK293 cells and purified by its His tag; Biotin labeled in the galectin ELISA; also called mAMCase; mouse AMCase
T12 sequence (Q91XA9 other isoform, or with tags, fused parts or gaps limits assumed): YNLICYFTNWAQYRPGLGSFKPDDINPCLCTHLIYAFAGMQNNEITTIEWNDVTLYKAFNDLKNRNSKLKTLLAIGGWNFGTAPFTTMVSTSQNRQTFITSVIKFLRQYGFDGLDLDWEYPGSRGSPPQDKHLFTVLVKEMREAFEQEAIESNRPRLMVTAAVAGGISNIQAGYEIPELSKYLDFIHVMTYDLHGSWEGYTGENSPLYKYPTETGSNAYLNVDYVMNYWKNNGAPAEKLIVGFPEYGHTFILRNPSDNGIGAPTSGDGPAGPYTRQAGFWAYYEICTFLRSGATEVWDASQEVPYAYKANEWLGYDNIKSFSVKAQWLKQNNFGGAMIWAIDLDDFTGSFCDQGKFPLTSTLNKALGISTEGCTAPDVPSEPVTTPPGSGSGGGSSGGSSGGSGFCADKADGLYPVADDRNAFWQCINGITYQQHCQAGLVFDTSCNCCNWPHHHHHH
Put plainly: ELISA; +++ = 2.50 to 3.99 OD at 62.5 ng/ml.

T2 sequence (Q91XA9 22-398 limits assumed): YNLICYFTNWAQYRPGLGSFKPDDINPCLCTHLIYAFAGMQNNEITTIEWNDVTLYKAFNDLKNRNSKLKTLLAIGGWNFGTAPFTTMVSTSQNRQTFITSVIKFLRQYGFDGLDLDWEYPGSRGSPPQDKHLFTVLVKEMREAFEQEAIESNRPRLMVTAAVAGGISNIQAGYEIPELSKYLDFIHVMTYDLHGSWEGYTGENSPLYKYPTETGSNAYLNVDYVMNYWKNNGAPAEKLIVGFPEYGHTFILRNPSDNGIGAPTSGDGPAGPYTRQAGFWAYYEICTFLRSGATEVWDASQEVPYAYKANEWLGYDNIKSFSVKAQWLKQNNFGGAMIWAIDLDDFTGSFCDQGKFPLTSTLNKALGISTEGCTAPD
T6 sequence (P36222 other isoform, or with tags, fused parts or gaps limits assumed): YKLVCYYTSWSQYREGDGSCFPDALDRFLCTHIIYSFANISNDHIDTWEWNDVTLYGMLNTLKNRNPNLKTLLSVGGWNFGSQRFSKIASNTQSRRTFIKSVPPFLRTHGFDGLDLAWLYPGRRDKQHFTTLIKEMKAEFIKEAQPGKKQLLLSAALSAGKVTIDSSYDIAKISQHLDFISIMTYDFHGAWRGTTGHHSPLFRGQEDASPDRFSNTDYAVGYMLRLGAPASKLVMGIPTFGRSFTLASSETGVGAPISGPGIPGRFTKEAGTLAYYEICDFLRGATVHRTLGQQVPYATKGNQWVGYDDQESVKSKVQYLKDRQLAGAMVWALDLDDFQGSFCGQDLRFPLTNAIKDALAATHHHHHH
T3 sequence (Q9D7Q1 other isoform, or with tags, fused parts or gaps limits assumed): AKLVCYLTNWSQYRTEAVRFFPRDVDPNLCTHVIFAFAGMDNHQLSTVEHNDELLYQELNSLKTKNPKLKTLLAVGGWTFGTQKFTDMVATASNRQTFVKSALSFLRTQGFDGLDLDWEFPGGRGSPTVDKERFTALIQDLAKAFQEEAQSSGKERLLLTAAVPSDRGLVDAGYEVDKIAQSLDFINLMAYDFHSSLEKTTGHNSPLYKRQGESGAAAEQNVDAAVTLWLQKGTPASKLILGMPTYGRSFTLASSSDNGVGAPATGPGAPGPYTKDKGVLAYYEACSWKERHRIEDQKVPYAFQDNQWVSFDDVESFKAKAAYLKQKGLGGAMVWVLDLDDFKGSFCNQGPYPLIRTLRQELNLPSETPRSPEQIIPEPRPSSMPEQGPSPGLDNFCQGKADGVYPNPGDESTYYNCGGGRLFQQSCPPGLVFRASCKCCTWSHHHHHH

B1: M1 (antibody, V domains shown)
VH: EVQLLESGGGLVQPGGSLRLSCAASGFTFSTYGMDWVRQAPGKGLEWVSYISPSGGYTMYADSVKGRFTISRDNSKNTLYLQMNSLRAEDTAVYYCARHSPRSAGANAFDIWGQGTMVTVSS
VL: DIQMTQSPATLSVSPGERATLSCRASQSVSSNLAWYQQKPGQAPRLLIYGASTRATGIPARFSGSGSGTEFTLTISSLQSEDFAVYYCQQYGSSLWTFGQGTKVEIK
notes: Fully human anti-AMCase antibody from phage display, converted to full length IgG
For B1, the binding result in [1], in assay [2], in assay [3], in assay [4], in assay [5] and in assay [6] was “no binding” in each case. In addition, the binding result in assay [7], in assay [8], in assay [9] and in assay [10] was “no binding” throughout.

B2: galectin 2 (other, UniProt P05162 1-132, looked up)
chain: MTGELEVKNMDMKPGSTLKITGSIADGTDGFVINLGQGTDKLNLHFNPRFSESTIVCNSLDGSNWGQEQREDHLCFSPGSEVKFTVTFESDKFKVKLPDGHELTFPNRLGHSHLSYLSVRGGFNMSSFKLKE
B2: the binding result in assay [11] and in assay [12] was “no binding (tested: 10 ug/ml)” throughout.
As for B3, the binding result in assay [13] is recorded as “binds”.
B4: in [14], the concentration for a half-maximal effect (EC50 (read off the curve)) (usually the concentration at which the effect is half-maximal) was roughly 0.1 µg/mL.
For the molecule B5, the “EC50 (read off the curve)” value in assay [15] was roughly 0.06 µg/mL.

B6: M5 (antibody, V domains shown)
VH: EVQLLESGGGLVQPGGSLRLSCAASGFTFSKYLMQWVRQAPGKGLEWVSSIVPSGGETVYADSVKGRFTISRDNSKNTLYLQMNSLRAEDTAVYYCARSGTYGASRYWGQGTLVTVSS
VL: DIQMTQSPLSLSVSVGQSASISCRSSHSLLYSDGNTYINWFHQRPGQSPRRLIHMVSKRDSGVPDRFSGSGSGTDFTLKISRAEAEDVGVYYCMQATYFPLTFGGGTRVEIK
notes: Fully human anti-AMCase antibody from a phage display library, converted to full length IgG
Consider B6, for which the “ELISA OD at 62.5 ng/ml antibody” value in assay [16], in assay [17] and in assay [18] was 2.5 to 3.99 od each time. For the same molecule, the binding result in [2], in [3], in assay [4], in [5], in assay [6] and in assay [7] was “no binding” throughout. For the same molecule, the binding result in [8] and in assay [10] was “no binding” in each case.
